Results: article PMC2813981

Experiments:
[1] = target: fibrinogen fragment D (human); experiment: SPR
[2] = target: fibrin matrix (thrombin- and factor XIIIa-treated human fibrinogen) (human) (UniProt P02671); experiment: confocal microscopy of perfused fibrin matrices
Chain of UniProt P02671 (P02671 36-866, chain 1 of 3): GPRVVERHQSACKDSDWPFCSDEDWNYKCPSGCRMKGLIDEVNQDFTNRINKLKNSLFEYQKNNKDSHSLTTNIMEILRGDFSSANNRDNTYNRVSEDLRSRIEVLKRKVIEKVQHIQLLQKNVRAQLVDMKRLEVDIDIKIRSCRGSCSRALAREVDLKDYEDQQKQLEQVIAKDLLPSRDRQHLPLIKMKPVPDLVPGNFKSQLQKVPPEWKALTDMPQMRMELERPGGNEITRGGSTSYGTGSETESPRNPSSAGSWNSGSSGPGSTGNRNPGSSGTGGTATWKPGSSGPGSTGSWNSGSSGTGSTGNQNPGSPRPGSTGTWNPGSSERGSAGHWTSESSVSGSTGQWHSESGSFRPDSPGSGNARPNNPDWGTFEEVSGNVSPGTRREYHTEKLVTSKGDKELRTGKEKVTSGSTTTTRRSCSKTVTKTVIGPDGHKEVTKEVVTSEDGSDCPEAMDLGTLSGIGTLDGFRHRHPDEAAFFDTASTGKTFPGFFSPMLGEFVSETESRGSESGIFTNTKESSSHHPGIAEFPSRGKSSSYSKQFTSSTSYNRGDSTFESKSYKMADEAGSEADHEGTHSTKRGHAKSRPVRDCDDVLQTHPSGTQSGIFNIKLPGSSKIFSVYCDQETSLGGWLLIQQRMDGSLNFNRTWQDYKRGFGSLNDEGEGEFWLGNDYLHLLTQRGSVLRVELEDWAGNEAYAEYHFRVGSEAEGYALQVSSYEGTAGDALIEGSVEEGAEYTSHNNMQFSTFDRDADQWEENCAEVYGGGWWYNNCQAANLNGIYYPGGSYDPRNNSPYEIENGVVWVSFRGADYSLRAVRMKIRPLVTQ
Chain of UniProt P02671 (P02675 45-491, chain 2 of 3, further chain): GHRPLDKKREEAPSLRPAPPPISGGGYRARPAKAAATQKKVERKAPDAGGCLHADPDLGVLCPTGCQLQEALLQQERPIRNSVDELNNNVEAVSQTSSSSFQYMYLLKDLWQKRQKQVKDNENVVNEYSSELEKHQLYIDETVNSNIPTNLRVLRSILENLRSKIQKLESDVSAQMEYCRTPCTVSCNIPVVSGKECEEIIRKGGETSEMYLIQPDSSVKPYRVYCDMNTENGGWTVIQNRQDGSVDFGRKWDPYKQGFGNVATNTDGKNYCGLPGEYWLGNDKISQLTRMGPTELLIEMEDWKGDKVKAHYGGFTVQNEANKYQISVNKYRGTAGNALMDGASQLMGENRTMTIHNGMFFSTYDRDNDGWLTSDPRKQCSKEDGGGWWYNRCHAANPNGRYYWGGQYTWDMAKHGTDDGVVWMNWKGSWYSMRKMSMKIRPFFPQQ
Chain of UniProt P02671 (P02679 27-453, chain 3 of 3, further chain): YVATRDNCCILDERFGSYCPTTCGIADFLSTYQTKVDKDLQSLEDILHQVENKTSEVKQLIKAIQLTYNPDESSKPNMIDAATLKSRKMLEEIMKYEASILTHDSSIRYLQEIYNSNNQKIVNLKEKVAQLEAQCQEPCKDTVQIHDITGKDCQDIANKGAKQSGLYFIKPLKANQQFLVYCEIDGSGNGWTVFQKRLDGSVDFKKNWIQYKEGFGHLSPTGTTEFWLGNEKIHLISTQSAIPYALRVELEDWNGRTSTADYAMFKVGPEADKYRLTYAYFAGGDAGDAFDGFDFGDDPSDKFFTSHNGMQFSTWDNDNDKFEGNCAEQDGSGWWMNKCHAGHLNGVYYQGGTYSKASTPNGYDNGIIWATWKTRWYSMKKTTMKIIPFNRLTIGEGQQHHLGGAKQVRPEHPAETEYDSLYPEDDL

Substance: GPRP-FnIII9-10 (designed binder)
- KD with a 10-molar excess of soluble GPRP peptide [1]: 43 µM
- Kd [1]: 3 µM

Substance: GPRP-FnIII9-10-AF633 (designed binder)
- percent of fibrin matrix still retaining the conjugate after perfusion [2]: 12.8%

Substance: GPRV-FnIII9-10 (designed binder)
- Kd [1]: 125 µM
